Experimental data taken from publication PMC7619462.
Each block holds one binder with its values, some of them ahead of it.

Assays:
[1] = biological target: T1, NPR-33 (C. elegans) (UniProt O62189)
T1 sequence: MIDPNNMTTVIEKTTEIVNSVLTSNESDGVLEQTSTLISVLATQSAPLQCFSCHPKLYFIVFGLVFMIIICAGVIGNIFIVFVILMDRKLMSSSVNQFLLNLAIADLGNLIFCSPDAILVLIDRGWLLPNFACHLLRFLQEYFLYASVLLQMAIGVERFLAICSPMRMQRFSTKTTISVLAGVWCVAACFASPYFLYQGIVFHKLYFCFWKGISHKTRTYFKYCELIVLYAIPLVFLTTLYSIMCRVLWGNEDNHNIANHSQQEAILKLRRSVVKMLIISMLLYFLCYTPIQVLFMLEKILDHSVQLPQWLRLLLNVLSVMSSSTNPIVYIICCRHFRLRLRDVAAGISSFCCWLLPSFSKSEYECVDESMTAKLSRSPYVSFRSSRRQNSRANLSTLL

[2] = biological target: NPR-44 (C. elegans) (UniProt Q9N5L5)
Chain of UniProt Q9N5L5 (Q9N5L5 entry or part of it): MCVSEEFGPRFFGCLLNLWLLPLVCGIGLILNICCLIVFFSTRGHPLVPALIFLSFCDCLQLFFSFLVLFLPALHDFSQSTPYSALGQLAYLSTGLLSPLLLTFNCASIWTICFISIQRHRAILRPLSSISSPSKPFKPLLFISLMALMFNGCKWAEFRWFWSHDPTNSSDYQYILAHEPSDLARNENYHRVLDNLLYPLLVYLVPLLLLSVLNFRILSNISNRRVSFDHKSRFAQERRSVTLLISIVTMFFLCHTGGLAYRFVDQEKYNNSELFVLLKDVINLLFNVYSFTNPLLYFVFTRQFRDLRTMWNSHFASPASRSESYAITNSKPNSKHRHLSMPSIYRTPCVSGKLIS

EC50 of receptor activation: calcium mobilization (aequorin) in CHO cells co-expressing the GPCR and Gα16, concentration-response curve, n = 6 [1]: 1.16 µM
Binder: WYEWNNDMEIT [NLP-70-1]

EC50 of receptor activation: calcium mobilization (aequorin) in CHO cells co-expressing the GPCR and Gα16, concentration-response curve, n = 6; also significant calcium response at 10 μM [2]: 0.232 µM
Binder: LHRIGGNIVM [NLP-69-1]

EC50 of receptor activation: calcium mobilization (aequorin) in CHO cells co-expressing the GPCR and Gα16, concentration-response curve, n = 6; also significant calcium response at 10 μM [1]: 0.0763 µM
Binder: WYDWQNVPHALQQ [NLP-70-2]
